Biological target: PfPDI8 (PF3D7_0827900), 3xV5-tagged at the endogenous locus (P. falciparum (3D7))
Assay: cross-linking + co-IP

PfBiP, the Hsp70 Binding immunoglobulin Protein (natural protein)
fold increase of co-immunoprecipitated PfBiP with DVSF against without DVSF: 2 fold
